# Source: the supplement of paper PMC7877785
# ± gives the uncertainty stated by the source.
# Assay: self-splicing fitness, log relative to wild type (ln ratio); higher = more splicing; Tetrahymena group I intron in knt gene, E. coli kanamycin selection, DiMSum; sequences stand for … in CUCUCU…GGAGGGAAAAGUUAUCAGGCAUGCACCUGGUAGCUAGUCUUUAAACCAAUAGAUUGCAUCGGUUUAAAAGGCAAGACCGUCAAAUUGCGGGAAAGGGGUCAACAGCCGUUCAGUACCAAGUCUCAGGGGAAACUUUGAGAUGGCCUUGCAAAGGGUAUGGUAAUAAGCUGACGGACAUGGUCCUAACCACGCAGCCAAGUCCUAAGUCAACAGAUCUUCUGUUGAUAUGGAUGCAGUUCACAGACUAAAUGUCGGUCGGGGAAGAUGUAUUCUUCUCAUAAGAUAUAGUCGGACCUCUCCUUAAUGGGAGCUAGCGGAUGAAGUGAUGCAACACUGGAGCCGCUGGGAACUAAUUUGUAUGCGAAAGUAUAUUGAUUAGUUUUGGAGUACUCGUGGUCG
# How it was run: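 A randomised library covering all eight P1ex-region intron nucleotides was built with the intron in the knt kanamycin-resistance gene on pET-22b(+) and held in E. coli BL21(DE3). Cells were grown overnight at 37°C or 30°C on LB agar, with or without 25 μg/mL kanamycin, plus 100 μg/mL carbenicillin, 50 μM IPTG and 0.2% rhamnose, and pooled colonies were amplicon-sequenced on an Illumina HiSeq 2500. DiMSum fitness is the error-weighted combination of wild-type-normalised replicate fold changes, kanamycin versus none.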
Sequence,self-splicing fitness (ln) (30 °C),self-splicing fitness (ln) (37 °C)
CCAUAGCAAUAUUACGGUUG,-1.43 ± 0.082,-0.827 ± 0.12
CCAUAGCAAUAUUACGUAUU,-3.88 ± 0.19,-2.64 ± 0.21
CCAUAGCAAUAUUACGUGCA,-2.77 ± 0.19,-3.02 ± 0.24
CCAUAGCAAUAUUACGUUCG,-0.579 ± 0.08,-0.674 ± 0.1
CCCAAGCAAUAUUACGAAAA,-2.96 ± 0.21,-2.1 ± 0.22
CCCAAGCAAUAUUACGAAAU,-3.19 ± 0.25,-2.35 ± 0.18
CCCAAGCAAUAUUACGAACG,-3.72 ± 0.25,-3.46 ± 0.2
CCCAAGCAAUAUUACGAAUC,-2.81 ± 0.24,-2.36 ± 0.27
CCCAAGCAAUAUUACGAAUG,-3.88 ± 0.22,-2.8 ± 0.18
CCCAAGCAAUAUUACGACCU,-3.38 ± 0.26,-2.44 ± 0.25
CCCAAGCAAUAUUACGCAAU,-4.46 ± 0.31,-1.16 ± 0.17
CCCAAGCAAUAUUACGCACC,–,-2.31 ± 0.33
CCCAAGCAAUAUUACGCAGA,-2.74 ± 0.21,-2.72 ± 0.14
CCCAAGCAAUAUUACGCAUC,–,-1.32 ± 0.21
CCCAAGCAAUAUUACGCGAU,-3.93 ± 0.21,-2.5 ± 0.19
CCCAAGCAAUAUUACGCGCC,–,-1.59 ± 0.34
CCCAAGCAAUAUUACGCGGA,-1.6 ± 0.093,-0.459 ± 0.097
CCCAAGCAAUAUUACGCUAC,-4.17 ± 0.39,-3.04 ± 0.38
CCCAAGCAAUAUUACGGAAU,-3.88 ± 0.26,-2.94 ± 0.22
CCCAAGCAAUAUUACGGGAU,-3.41 ± 0.096,-2.47 ± 0.12
CCCAAGCAAUAUUACGGGUG,-3.36 ± 0.093,-1.79 ± 0.077
CCCAAGCAAUAUUACGGUGC,-3.6 ± 0.27,-2.26 ± 0.22
CCCAAGCAAUAUUACGGUGG,-3.69 ± 0.15,-2.71 ± 0.15
CCCAAGCAAUAUUACGUAAC,-3.6 ± 0.18,-2.52 ± 0.21
CCCAAGCAAUAUUACGUAGA,-3.94 ± 0.17,-3.16 ± 0.18

Sequence,self-splicing fitness (ln) (30 °C),self-splicing fitness (ln) (37 °C)
CCCAAGCAAUAUUACGUCAG,-4.12 ± 0.17,-1.97 ± 0.13
CCCAAGCAAUAUUACGUCAU,-2.95 ± 0.14,-2.74 ± 0.13
CCCAAGCAAUAUUACGUCCU,-3.99 ± 0.3,-2.93 ± 0.29
CCCAAGCAAUAUUACGUCGG,-3.63 ± 0.12,-2.51 ± 0.14
CCCAAGCAAUAUUACGUUAA,-3.68 ± 0.17,-2.62 ± 0.14
CCCAAGCAAUAUUACGUUAC,-4.13 ± 0.15,-2.37 ± 0.13
CCCAAGCAAUAUUACGUUGU,-3.3 ± 0.095,-2.43 ± 0.11
CCCCAGCAAUAUUACGAAAA,-3.6 ± 0.26,-2.57 ± 0.26
CCCCAGCAAUAUUACGAAGG,-4.06 ± 0.17,-2.51 ± 0.15
CCCCAGCAAUAUUACGAAUG,-4.11 ± 0.21,-2.3 ± 0.15
CCCCAGCAAUAUUACGACGU,-3.45 ± 0.21,-2.9 ± 0.19
CCCCAGCAAUAUUACGAUAC,-3.82 ± 0.27,-2.85 ± 0.28
CCCCAGCAAUAUUACGAUUU,-3.43 ± 0.14,-3.51 ± 0.25
CCCCAGCAAUAUUACGCAGG,-3.34 ± 0.12,-2.52 ± 0.16
CCCCAGCAAUAUUACGCCGA,–,-2.04 ± 0.25
CCCCAGCAAUAUUACGCGAC,-3.37 ± 0.21,-2.49 ± 0.25
CCCCAGCAAUAUUACGCUGC,-3.41 ± 0.17,-2.06 ± 0.23
CCCCAGCAAUAUUACGCUUC,-4.6 ± 0.32,-2.39 ± 0.27
CCCCAGCAAUAUUACGGAAC,-3.83 ± 0.26,-3.1 ± 0.22
CCCCAGCAAUAUUACGGCUA,-3.77 ± 0.16,-2.34 ± 0.13
CCCCAGCAAUAUUACGGGAC,-3.88 ± 0.18,-2.12 ± 0.14
CCCCAGCAAUAUUACGGGCC,-3.27 ± 0.15,-1.7 ± 0.15
CCCCAGCAAUAUUACGGGUA,-2.89 ± 0.11,-1.25 ± 0.073
CCCCAGCAAUAUUACGGGUU,-3.63 ± 0.11,-1.85 ± 0.092
